Experimental data: patent publication US6953656B2, “Direct, externally imposed control of polypeptides” (Massachusetts Institute of Technology, priority 2000, dated 2005)
“Also recorded” adds a separate entry of the source. Where no end group is shown, it is not given here.

Experiments:
thrombin = thrombin (Homo sapiens, UniProt P00734); settings: cited from earlier work
[1] = biological target: T1, Ribonuclease S (S-protein) (Bos taurus, UniProt P61823); assay: RNase S activity assay: increase in acid soluble nucleotides (A280) during hydrolysis of poly-(C), with or without 1 GHz RFMF; assay type: biochemical; settings: for RNase S activity (digested polyC, A280) with the RFMF on compared with RFMF off: 37° C., as a function of reaction time
T1 construct: incubated with the rest of the Ribonuclease S complex, the S-protein; purchased Novagen, Madison, Wis
T1 sequence (P61823 47-150 limits assumed): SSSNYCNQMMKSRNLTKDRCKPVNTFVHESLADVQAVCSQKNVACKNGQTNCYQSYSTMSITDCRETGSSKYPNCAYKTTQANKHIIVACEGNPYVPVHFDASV
Method: In this example, ribonuclease S was associated with a gold nanocrystal modulator (the system described in Example 1). The activity of the enzyme was controlled by induction heating of the modulator using an alternating magnetic field. The frequency of the alternating magnetic field was 1 GHz in the radiofrequency range. Accordingly, the alternating magnetic field is referred to as a radiofrequency magnetic field (RFMF). The modulator S-peptide and S-protein complex was incubated with the substrate, polyC, in solution at 37° C. The tube containing the sample was placed in a coil inside which the RFMF was generated and switched on. Activity was monitored by measuring the amount of digested polyC in the solution. PolyC was purified from the rest of the sample by precipitation with trichloroacetic acid (TCA). The activity was the amount of digested polyC, which is determined by the optical absorption of the sample at 280 nm.
The assay for measuring RNase activity was based on the measurement of increase in acid soluble nucleotides during the hydrolysis of poly-(C) (FIG. 14(a)). All concentrations were expressed as the final concentrations in the assay system. The S-protein (Novagen, Madison, Wis.) with various concentrations of S18 peptide was pre-incubated in 20 mM Na-phosphate buffer, pH 6.0; 100 mM NaCl at 37° C. for 10 minutes followed by initiating the reaction by the addition of the substrate, 0.39 mM poly [C] (sigma). At different time intervals, aliquots were quenched with 5% trichloroacetic acid (TCA). The reaction mixture was kept on ice for 5 minutes and subsequently spun at 13,000 rpm (Biofuge A) for 10 min.
Alternating magnetic fields are generated by applying an electric current to a copper coil that coils around a quartz cuvette. Currents with frequencies in the radio frequency range are obtained by using a RF generator with a current amplifier. The RF is pulsed at 15 second intervals. The RF power levels are varied from −8 dBm to −0.1 dBm. The MF frequency used is 1 GHz.

[2] = biological target: T1, Ribonuclease S (S-protein); assay: as above; assay type: biochemical

For “CGAGAG-AETEYDSLYPEDDL (CGAGAGAETEYDSLYPEDDL; thrombin inhibitory peptide: fibrin 414-27) [414-427, fibrin gamma chain fragment peptide]”, the “Inhibition of thrombin activity” value (thrombin) is given as “strongly inhibit”.
In the case of “CGAGAG-VRPEHPAETEYDSLYPEDDL (CGAGAGVRPEHPAETEYDSLYPEDDL; thrombin inhibitory peptide: fibrin 408-27) [408-427, fibrin gamma chain fragment peptide]”, the “Inhibition of thrombin activity” value (thrombin) is listed as “strongly inhibit”.
With “Au-S18: S18 peptide covalently linked via N-terminal cysteine to a single 1.4 nm gold nanocrystal; tested complexed with S-protein (CGGKETAAAKFERQHMDS; also: linked via N-terminal cysteine to a 1.4 nm gold nanocrystal)” the “RF power at the 50% activity” value ([1]; 1 GHz RFMF) was −4 dBm, the “Enzymatic activity when combined with S-protein, no RF (RF OFF state)” value (“Enzymatic activity … no RF (RF OFF state)” below) [1] was “active” and the “Effect of higher RF levels on RNase S activity” value ([1]; RF −4, −3, −2 to −1 dBm, 1 GHz) was “drastic effect”. For the same compound, the “Effect of low RF levels on RNase S activity” value ([1]; RF −8 to −5 dBm, 1 GHz) was “no significant effect”, the “Activity once recovered after RF” value ([1]; after recovery time) was “fully active” and the “RNase S activity with the RFMF on compared with RFMF off as a function of modulator-S-peptide concentration” value ([1]; modulator linked to S-peptide, RFMF 1 GHz, entire concentration range) was “significantly less than with the RFMF off”. The “RNase S activity (digested polyC, A280) with the RFMF on compared with RFMF off” value ([1]; modulator linked to S-peptide, RFMF 1 GHz, listed as Au-S18/S peptide) was “reduced”, the “RNase S activity (digested polyC, A280) with the RFMF on compared with RFMF off” value ([1]; modulator linked to S-peptide, RFMF 1 GHz, listed as gold nanoparticle linked S-peptide) was “transiently halting the enzyme activity” and the “RNase S activity (digested polyC, A280) with the RFMF on compared with RFMF off” value ([1]; modulator linked to S-peptide, RFMF 1 GHz, listed as modulator S-peptide-S-protein complex) was “less than with the RFMF off”. For the same compound, the “Enzymatic activity … no RF (RF OFF state)” value ([2]; listed as gold nanoparticle linked S-peptide) was “indistinguishable from the S-peptide without the nanoparticles”.
For Hirudin, the Affinity for thrombin (thrombin) is given as “extremely high affinity” and the “Inhibition of thrombin activity” value (thrombin) is given as “inhibits the enzymatic cleavage of fibrinogen by thrombin”.
For `NC(N)=NCCC[C@H](NC(=O)[C@@H]1CCCN1C(=O)[C@H](N)Cc1ccccc1)C(=O)CCl` [PPACK, D-Phe-L-Pro-L-Arg-chloromenthy ketone], the “Inhibition of thrombin activity” value (thrombin) is given as “inhibitory effect”.
For “CGAGAG-NGDFEEIPEEYL (CGAGAGNGDFEEIPEEYL; thrombin inhibitory peptide: hirudin 53-64) [hirugen53-64, fragment of Hirudin]”, the Affinity for thrombin (thrombin) is listed as “very high affinity”.
In the case of n-CGGKETAAAKFERQHMDS-c (S18 peptide), the “Enzymatic activity … no RF (RF OFF state)” value [1] is reported as “restored the RNase S enzyme activity; also recorded: indistinguishable from that of the S15 native peptide”.
In the case of “S15: residues 1 to 15 of the wild type S-peptide of ribonuclease S (KETAAAKFERQHMDS) [reference compound]”, the “Enzymatic activity … no RF (RF OFF state)” value [1] is reported as “full enzymatic activity” and the “Enzymatic activity … no RF (RF OFF state)” value ([2]; listed as S-peptide with only the N-terminal 15 residues) is reported as “completely restored the enzymatic activity”.
